Test results reported in PMC5676751.

Target: HER2 on HER2-expressing SKOV3 and BT474 cells (human (endogenous in SKOV3 and BT474)) (UniProt P04626)
Assay: radioligand binding; LigandTracer Yellow, living SKOV3 cells (10^6) on a segment of a dish; radiolabeled ADAPT at 0.333 and 1 nM; association and dissociation recorded, duplicates; InteractionMap software, two types of interaction

Row | KD1 (first of two types of interaction) | KD2 (second of two types of interaction) | Substance
1 | 32.3 pM | 1.31 nM | ^111In-DEAVDANS-ADAPT6-GSSC-DOTA (designed binder)
2 | 174 pM | – | ^99mTc-DEAVDANS-ADAPT6-GSSC (designed binder)
